Data on five molecules can be found in US20170008943A1 (Novo Nordisk, published 2017).

*1 amine or outer side, *2 acyl side, *3 side chain or, on linkers, in order; H or OH if unused. Side-chain parts run from the residue outwards. [ ]: non-standard residue; d: D form. The star is where a group is joined. γGlu = O=C(O)[C@H](CCC(=O)[*:2])N[*:1]; Desaminohistidyl = O=C(CCc1c[nH]cn1)*

Experiment [1] addresses T1, human glucagon receptor (human, UniProt P47871 26-477).
T1 construct: whole, on cells; Potency assay (I)(b): whole BHK cells (clone pLJ6'-4-25) with CRE luciferase; also called hGlucagonR; hGCGR
Nature of the experiment: displacement of 125I-glucagon from BHK membranes with human glucagon receptor (SPA), Assay (II)(b).

Experiment [2] concerns the target T1, human glucagon receptor. As to the kind of experiment: cell-based or functional assay.

T1 sequence (P47871 26-477): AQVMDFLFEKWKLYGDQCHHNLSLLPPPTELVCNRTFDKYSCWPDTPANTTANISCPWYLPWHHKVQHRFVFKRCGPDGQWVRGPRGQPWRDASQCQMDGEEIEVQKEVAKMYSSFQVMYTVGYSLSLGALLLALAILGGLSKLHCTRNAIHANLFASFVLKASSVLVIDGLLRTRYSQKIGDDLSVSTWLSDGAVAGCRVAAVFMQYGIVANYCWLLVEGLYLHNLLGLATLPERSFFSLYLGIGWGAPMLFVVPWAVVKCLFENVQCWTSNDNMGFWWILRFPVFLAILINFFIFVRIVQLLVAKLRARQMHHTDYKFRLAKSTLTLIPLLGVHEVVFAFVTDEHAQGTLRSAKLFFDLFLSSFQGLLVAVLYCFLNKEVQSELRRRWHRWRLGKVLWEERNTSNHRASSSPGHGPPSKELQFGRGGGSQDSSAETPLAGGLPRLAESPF

B1: N^α([Imp1, His3, Glu15, Glu21, Leu27, … (peptide)
peptide: [Desaminohistidyl]SHGTFTSDYSKYLESRRAQEFVQWLLSTK([γGlu-γGlu-γGlu-γGlu-Ac])-OH
SMILES: CC(=O)N[C@@H](CCC(=O)N[C@@H](CCC(=O)N[C@@H](CCC(=O)N[C@@H](CCC(=O)NCCCC[C@H](NC(=O)[C@@H](NC(=O)[C@H](CO)NC(=O)[C@H](CC(C)C)NC(=O)[C@H](CC(C)C)NC(=O)[C@H](Cc1c[nH]c2ccccc12)NC(=O)[C@H](CCC(N)=O)NC(=O)[C@@H](NC(=O)[C@H](Cc1ccccc1)NC(=O)[C@H](CCC(=O)O)NC(=O)[C@H](CCC(N)=O)NC(=O)[C@H](C)NC(=O)[C@H](CCCNC(=N)N)NC(=O)[C@H](CCCNC(=N)N)NC(=O)[C@H](CO)NC(=O)[C@H](CCC(=O)O)NC(=O)[C@H](CC(C)C)NC(=O)[C@H](Cc1ccc(O)cc1)NC(=O)[C@H](CCCCN)NC(=O)[C@H](CO)NC(=O)[C@H](Cc1ccc(O)cc1)NC(=O)[C@H](CC(=O)O)NC(=O)[C@H](CO)NC(=O)[C@@H](NC(=O)[C@H](Cc1ccccc1)NC(=O)[C@@H](NC(=O)CNC(=O)[C@H](Cc1c[nH]cn1)NC(=O)[C@H](CO)NC(=O)CCc1c[nH]cn1)[C@@H](C)O)[C@@H](C)O)C(C)C)[C@@H](C)O)C(=O)O)C(=O)O)C(=O)O)C(=O)O)C(=O)O
notes: Imp written X under substitutions
For orientation: IC50 means the point on the concentration scale where inhibition reaches its midpoint. For B1, the half-inhibitory concentration (IC50) in experiment [1] came to 2 nM. Also, the “EC50 hGlucagonR (pM), CRE luciferase reporter in BHK cells” value (“EC50 hGlucagonR (pM)” below) in experiment [2] was 4 pM.

B2: N^ε28-[(4S)-4-[[(4S)-4-[[(4S)-4-[[(4S)-4-acetamido-4-carboxybutanoyl]amino]-4-carboxybutanoyl]amino]-4-carboxybutanoyl]amino]-4-carboxybutanoyl]-[Imp1, His3, … (peptide)
peptide: [Desaminohistidyl]SHGTFTSDYSKYLESRRAQEFVQWLLK([γGlu-γGlu-γGlu-γGlu-Ac])T-OH
SMILES: CC(=O)N[C@@H](CCC(=O)N[C@@H](CCC(=O)N[C@@H](CCC(=O)N[C@@H](CCC(=O)NCCCC[C@H](NC(=O)[C@H](CC(C)C)NC(=O)[C@H](CC(C)C)NC(=O)[C@H](Cc1c[nH]c2ccccc12)NC(=O)[C@H](CCC(N)=O)NC(=O)[C@@H](NC(=O)[C@H](Cc1ccccc1)NC(=O)[C@H](CCC(=O)O)NC(=O)[C@H](CCC(N)=O)NC(=O)[C@H](C)NC(=O)[C@H](CCCNC(=N)N)NC(=O)[C@H](CCCNC(=N)N)NC(=O)[C@H](CO)NC(=O)[C@H](CCC(=O)O)NC(=O)[C@H](CC(C)C)NC(=O)[C@H](Cc1ccc(O)cc1)NC(=O)[C@H](CCCCN)NC(=O)[C@H](CO)NC(=O)[C@H](Cc1ccc(O)cc1)NC(=O)[C@H](CC(=O)O)NC(=O)[C@H](CO)NC(=O)[C@@H](NC(=O)[C@H](Cc1ccccc1)NC(=O)[C@@H](NC(=O)CNC(=O)[C@H](Cc1c[nH]cn1)NC(=O)[C@H](CO)NC(=O)CCc1c[nH]cn1)[C@@H](C)O)[C@@H](C)O)C(C)C)C(=O)N[C@H](C(=O)O)[C@@H](C)O)C(=O)O)C(=O)O)C(=O)O)C(=O)O
notes: as for B1
B2 gave an IC50 in experiment [1] of 2.6 nM. Further, the “EC50 hGlucagonR (pM)” value in experiment [2] was determined as 6 pM.

B3: N^ε29-[(4S)-4-[[(4S)-4-[[(4S)-4-[[(4S)-4-acetamido-4-carboxybutanoyl]amino]-4-carboxybutanoyl]amino]-4-carboxybutanoyl]amino]-4-carboxybutanoyl]-[Imp1, His3, … (peptide)
peptide: [Desaminohistidyl]SHGTFTSDYSKYLESRRAQEFVQWLLSK([γGlu-γGlu-γGlu-γGlu-Ac])-OH
SMILES: CC(=O)N[C@@H](CCC(=O)N[C@@H](CCC(=O)N[C@@H](CCC(=O)N[C@@H](CCC(=O)NCCCC[C@H](NC(=O)[C@H](CO)NC(=O)[C@H](CC(C)C)NC(=O)[C@H](CC(C)C)NC(=O)[C@H](Cc1c[nH]c2ccccc12)NC(=O)[C@H](CCC(N)=O)NC(=O)[C@@H](NC(=O)[C@H](Cc1ccccc1)NC(=O)[C@H](CCC(=O)O)NC(=O)[C@H](CCC(N)=O)NC(=O)[C@H](C)NC(=O)[C@H](CCCNC(=N)N)NC(=O)[C@H](CCCNC(=N)N)NC(=O)[C@H](CO)NC(=O)[C@H](CCC(=O)O)NC(=O)[C@H](CC(C)C)NC(=O)[C@H](Cc1ccc(O)cc1)NC(=O)[C@H](CCCCN)NC(=O)[C@H](CO)NC(=O)[C@H](Cc1ccc(O)cc1)NC(=O)[C@H](CC(=O)O)NC(=O)[C@H](CO)NC(=O)[C@@H](NC(=O)[C@H](Cc1ccccc1)NC(=O)[C@@H](NC(=O)CNC(=O)[C@H](Cc1c[nH]cn1)NC(=O)[C@H](CO)NC(=O)CCc1c[nH]cn1)[C@@H](C)O)[C@@H](C)O)C(C)C)C(=O)O)C(=O)O)C(=O)O)C(=O)O)C(=O)O
notes: as for B1
The molecule B3 came in with an IC50 in experiment [1] of 5.1 nM. Moreover, the “EC50 hGlucagonR (pM)” value in experiment [2] stood at 4 pM.

B4: Nε^21-[(4S)-4-[[(4S)-4-[[(4S)-4-[[(4S)-4-acetamido-4-carboxybutanoyl]amino]-4-carboxybutanoyl]amino]-4-carboxybutanoyl]amino]-4-carboxybutanoyl]-[Imp1, His3, … (peptide)
peptide: [Desaminohistidyl]SHGTFTSDYSKYLESRRAQK([γGlu-γGlu-γGlu-γGlu-Ac])FVQWLLST-OH
SMILES: CC(=O)N[C@@H](CCC(=O)N[C@@H](CCC(=O)N[C@@H](CCC(=O)N[C@@H](CCC(=O)NCCCC[C@H](NC(=O)[C@H](CCC(N)=O)NC(=O)[C@H](C)NC(=O)[C@H](CCCNC(=N)N)NC(=O)[C@H](CCCNC(=N)N)NC(=O)[C@H](CO)NC(=O)[C@H](CCC(=O)O)NC(=O)[C@H](CC(C)C)NC(=O)[C@H](Cc1ccc(O)cc1)NC(=O)[C@H](CCCCN)NC(=O)[C@H](CO)NC(=O)[C@H](Cc1ccc(O)cc1)NC(=O)[C@H](CC(=O)O)NC(=O)[C@H](CO)NC(=O)[C@@H](NC(=O)[C@H](Cc1ccccc1)NC(=O)[C@@H](NC(=O)CNC(=O)[C@H](Cc1c[nH]cn1)NC(=O)[C@H](CO)NC(=O)CCc1c[nH]cn1)[C@@H](C)O)[C@@H](C)O)C(=O)N[C@@H](Cc1ccccc1)C(=O)N[C@H](C(=O)N[C@@H](CCC(N)=O)C(=O)N[C@@H](Cc1c[nH]c2ccccc12)C(=O)N[C@@H](CC(C)C)C(=O)N[C@@H](CC(C)C)C(=O)N[C@@H](CO)C(=O)N[C@H](C(=O)O)[C@@H](C)O)C(C)C)C(=O)O)C(=O)O)C(=O)O)C(=O)O
notes: as for B1
As to B4, the IC50 in experiment [1] was 5.2 nM. Further, the “EC50 hGlucagonR (pM)” value in experiment [2] stood at 17 pM.

B5: N^ε24-[2-[[(4S)-4-[[(4S)-4-[[(4S)-4-[[(4S)-4-acetamido-4-carboxybutanoyl]amino]-4-carboxybutanoyl]amino]-4-carboxybutanoyl]amino]-4-carboxybutanoyl]amino]acetyl … (peptide)
peptide: [Desaminohistidyl]SHGTFTSDYSKYLESRRAQEFVK([Gly-γGlu-γGlu-γGlu-γGlu-Ac])WLLST-OH
SMILES: CC(=O)N[C@@H](CCC(=O)N[C@@H](CCC(=O)N[C@@H](CCC(=O)N[C@@H](CCC(=O)NCC(=O)NCCCC[C@H](NC(=O)[C@@H](NC(=O)[C@H](Cc1ccccc1)NC(=O)[C@H](CCC(=O)O)NC(=O)[C@H](CCC(N)=O)NC(=O)[C@H](C)NC(=O)[C@H](CCCNC(=N)N)NC(=O)[C@H](CCCNC(=N)N)NC(=O)[C@H](CO)NC(=O)[C@H](CCC(=O)O)NC(=O)[C@H](CC(C)C)NC(=O)[C@H](Cc1ccc(O)cc1)NC(=O)[C@H](CCCCN)NC(=O)[C@H](CO)NC(=O)[C@H](Cc1ccc(O)cc1)NC(=O)[C@H](CC(=O)O)NC(=O)[C@H](CO)NC(=O)[C@@H](NC(=O)[C@H](Cc1ccccc1)NC(=O)[C@@H](NC(=O)CNC(=O)[C@H](Cc1c[nH]cn1)NC(=O)[C@H](CO)NC(=O)CCc1c[nH]cn1)[C@@H](C)O)[C@@H](C)O)C(C)C)C(=O)N[C@@H](Cc1c[nH]c2ccccc12)C(=O)N[C@@H](CC(C)C)C(=O)N[C@@H](CC(C)C)C(=O)N[C@@H](CO)C(=O)N[C@H](C(=O)O)[C@@H](C)O)C(=O)O)C(=O)O)C(=O)O)C(=O)O
notes: as for B1
In turn, B5 had an IC50 in experiment [1] of 2.5 nM. Further, the “EC50 hGlucagonR (pM)” value in experiment [2] came out at 9.9 pM.
